Bounds are passed on as bounds.

The target in series [1] is ALV-A Env surface subunit (SU), wild type, on virus particles (avian leukosis virus-A (ALV-A)) (UniProt P0DTM4).
Series [2] deals with the molecule itself. The series is described as follows: SDS-resistant oligomer by SDS-PAGE and immunoblot.

ALV-A Env surface subunit (SU), wild type, on virus particles (avian leukosis virus-A (ALV-A)), sequence (P0DTM4 63-401): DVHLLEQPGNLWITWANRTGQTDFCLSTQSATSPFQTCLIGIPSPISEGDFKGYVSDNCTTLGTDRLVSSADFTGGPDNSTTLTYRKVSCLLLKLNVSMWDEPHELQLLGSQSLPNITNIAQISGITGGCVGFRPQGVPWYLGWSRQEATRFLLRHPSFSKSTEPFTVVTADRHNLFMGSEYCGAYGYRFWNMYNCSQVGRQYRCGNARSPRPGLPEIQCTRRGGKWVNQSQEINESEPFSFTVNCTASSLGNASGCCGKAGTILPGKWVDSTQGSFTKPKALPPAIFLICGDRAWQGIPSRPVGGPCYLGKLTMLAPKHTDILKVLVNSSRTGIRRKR

For the molecule “sTva, a functional isoform of the ALV-A receptor lacking the transmembrane domain”, the infection of 293-Tva cells by ALV-A particles exposed to PMB (10 mM) in the presence of sTva (10 uM) in series [1] was over 99%.

B1: ALV-A Env transmembrane subunit (TM), on virus particles (natural protein)
chain: STSHLDDTCSDEVQLWGPTARIFASILAPGVARAQALREIERLACWSVKQANLTTSFLGDLLDDVTSIRHAVLQNRAAIDFLLLAHGHGCEDVAGMCCFNLSDHSESIQKKFQLMKEHVNKIGVDSDPIGSWLRGLFGGIGEWAVHLLKGLLLGLVVILLLVVCLPCLLQIVCGNIRKMINNSISYHTEYKKLQKACGQPESRIV
As usually defined, the stoichiometry N is the number of molecules, sites or subunits per partner or assembly. For B1, the “stoichiometry N” value in series [2] stood at 3.

For the origin of these results see PMC2151085 (PLoS Pathogens, 2007).
